Measurements taken from patent publication US11440969B2, “Use of human epididymis protein 4 (HE4) for assessing responsiveness of MUC 16-positive cancer treatment” (Genentech, Inc., priority 2016, dated 2022).

Assay: Safety of DMUC5754A in patients: related adverse events, DLT, MTD/RP2D (NCI CTCAE v4.0)
Assay type: in vivo, human
Conditions: for On study PN = No, patients n (%) / On study PN = Yes, patients n (%) / Median time to onset of first PN on study: q1w dosing
Description: This multicenter, open-label, dose-escalation study was designed to identify the recommended Phase II dose (RP2D) of DMUC5754A in patients with platinum-resistant OC or unresectable pancreatic cancer. In the single-agent dose escalation stage utilizing a 3+3 enrollment scheme, patients were given intravenous DMUC5754A (Genentech Inc.) 0.3-3.2 mg/kg every 3 weeks (q3w) to evaluate the safety, tolerability, and pharmacokinetics of DMUC5754A. Following determination of the maximum tolerated dose (MTD), dose-expansion cohorts were enrolled at the RP2D of 2.4 mg/kg to further characterize the safety and preliminary clinical efficacy of DMUC5754A.
Dosing on a weekly (qlw) schedule was also evaluated at the RP2D, employing a 3+3 design to determine the MTD of weekly dosing, followed by a cohort expansion to further characterize the safety and activity of q1w dosing.
Safety was evaluated according to NCI CTCAE v4.0. […] The maximum tolerated dose (MTD) was defined as the dose at which ≤1 of 6 patients at an assigned dose with protocol-defined DLT. Patients who experienced a DLT or adverse event (AE) meeting DLT criteria after the DLT assessment window were allowed to delay dosing for up to 2 weeks or undergo a dose reduction.

[1] = q1w patients, over all dose levels

B1: DMUC5754A: antibody-drug conjugate: humanized IgG1 anti-MUC16 monoclonal antibody and MMAE, linked through protease labile linker maleimidocaproyl-valine-citrulline-p-aminobenzyloxycarbonyl (conjugate, chains of the INN, looked up)
VH: EVQLVESGGGLVQPGGSLRLSCAASGYSITNDYAWNWVRQAPGKGLEWVGYISYSGYTTYNPSLKSRFTISRDTSKNTLYLQMNSLRAEDTAVYYCARWTSGLDYWGQGTLVTVSS
VL: DIQMTQSPSSLSASVGDRVTITCKASDLIHNWLAWYQQKPGKAPKLLIYGATSLETGVPSRFSGSGSGTDFTLTISSLQPEDFATYYCQQYWTTPFTFGQGTKVEIK
modifications: MMAE via mc-vc-PABC linker
3.2 mg/kg q3w, OC, 1 Grade 4 hypocalcaemia and 1 Grade 3 uric acid increase, in 2 of 3 DLT-evaluable patients
  protocol-defined DLTs: 2
q1w 0.8 mg/kg (n = 3)
  Alopecia (related AE), patients n (%): 0
  Anemia (related AE), patients n (%): 1 (33.3%)
  Any adverse events (related), patients n (%): 2 (66.7%)
  Arthralgia (related AE), patients n (%): 0
  Aspartate aminotransferase increased (related AE), patients n (%): 0
  Constipation (related AE), patients n (%): 1 (33.3%)
  Decreased appetite (related AE), patients n (%): 0
  Diarrhea (related AE), patients n (%): 0
  Fatigue (related AE), patients n (%): 0
  Headache (related AE), patients n (%): 0
  Hypomagnesaemia (related AE), patients n (%): 1 (33.3%)
  Hyponatremia (related AE), patients n (%): 0
  Nausea (related AE), patients n (%): 0
  Neutropenia (related AE), patients n (%): 1 (33.3%)
  Peripheral neuropathy (related AE), patients n (%): 0
  Vomiting (related AE), patients n (%): 0
q1w 1.1 mg/kg (n = 7)
  Alopecia (related AE), patients n (%): 1 (14.3%)
  Anemia (related AE), patients n (%): 3 (42.9%)
  Any adverse events (related), patients n (%): 7 (100.0%)
  Arthralgia (related AE), patients n (%): 2 (28.6%)
  Aspartate aminotransferase increased (related AE), patients n (%): 2 (28.6%)
  Constipation (related AE), patients n (%): 0
  Decreased appetite (related AE), patients n (%): 1 (14.3%)
  Diarrhea (related AE), patients n (%): 3 (42.9%)
  Fatigue (related AE), patients n (%): 2 (28.6%)
  Headache (related AE), patients n (%): 2 (28.6%)
  Hypomagnesaemia (related AE), patients n (%): 2 (28.6%)
  Hyponatremia (related AE), patients n (%): 1 (14.3%)
  Nausea (related AE), patients n (%): 4 (57.1%)
  Neutropenia (related AE), patients n (%): 1 (14.3%)
  Peripheral neuropathy (related AE), patients n (%): 1 (14.3%)
  Vomiting (related AE), patients n (%): 2 (28.6%)
q1w 1.4 mg/kg (n = 7)
  Alopecia (related AE), patients n (%): 2 (28.6%)
  Anemia (related AE), patients n (%): 2 (28.6%)
  Any adverse events (related), patients n (%): 5 (71.4%)
  Arthralgia (related AE), patients n (%): 1 (14.3%)
  Aspartate aminotransferase increased (related AE), patients n (%): 1 (14.3%)
  Constipation (related AE), patients n (%): 2 (28.6%)
  Decreased appetite (related AE), patients n (%): 3 (42.9%)
  Diarrhea (related AE), patients n (%): 0
  Fatigue (related AE), patients n (%): 2 (28.6%)
  Headache (related AE), patients n (%): 0
  Hypomagnesaemia (related AE), patients n (%): 0
  Hyponatremia (related AE), patients n (%): 1 (14.3%)
  Nausea (related AE), patients n (%): 4 (57.1%)
  Neutropenia (related AE), patients n (%): 1 (14.3%)
  Peripheral neuropathy (related AE), patients n (%): 2 (28.6%)
  Vomiting (related AE), patients n (%): 5 (71.4%)
q1w 1.6 mg/kg (n = 6)
  Alopecia (related AE), patients n (%): 2 (33.3%)
  Anemia (related AE), patients n (%): 2 (33.3%)
  Any adverse events (related), patients n (%): 6 (100.0%)
  Arthralgia (related AE), patients n (%): 0
  Aspartate aminotransferase increased (related AE), patients n (%): 1 (16.7%)
  Constipation (related AE), patients n (%): 0
  Decreased appetite (related AE), patients n (%): 1 (16.7%)
  Diarrhea (related AE), patients n (%): 2 (33.3%)
  Fatigue (related AE), patients n (%): 3 (50.0%)
  Headache (related AE), patients n (%): 1 (16.7%)
  Hypomagnesaemia (related AE), patients n (%): 2 (33.3%)
  Hyponatremia (related AE), patients n (%): 1 (16.7%)
  Nausea (related AE), patients n (%): 3 (50.0%)
  Neutropenia (related AE), patients n (%): 3 (50.0%)
  Peripheral neuropathy (related AE), patients n (%): 1 (16.7%)
  Vomiting (related AE), patients n (%): 2 (33.3%)
q1w All Patients (n = 23)
  Alopecia (related AE), patients n (%): 5 (21.7%)
  Anemia (related AE), patients n (%): 8 (34.8%)
  Any adverse events (related), patients n (%): 20 (87.0%)
  Arthralgia (related AE), patients n (%): 3 (13.0%)
  Aspartate aminotransferase increased (related AE), patients n (%): 4 (17.4%)
  Constipation (related AE), patients n (%): 3 (13.0%)
  Decreased appetite (related AE), patients n (%): 5 (21.7%)
  Diarrhea (related AE), patients n (%): 5 (21.7%)
  Fatigue (related AE), patients n (%): 7 (30.4%)
  Headache (related AE), patients n (%): 3 (13.0%)
  Hypomagnesaemia (related AE), patients n (%): 5 (21.7%)
  Hyponatremia (related AE), patients n (%): 3 (13.0%)
  Nausea (related AE), patients n (%): 11 (47.8%)
  Neutropenia (related AE), patients n (%): 6 (26.1%)
  Vomiting (related AE), patients n (%): 9 (39.1%)
q1w cohorts, 3/23 patients
  patients with AEs leading to treatment discontinuation: 13.0%
Prior neuropathy = No
  On study PN = No, patients n (%): 10 (43%)
  On study PN = Yes, patients n (%): 2 (9%)
Prior neuropathy = Yes
  Median time to onset of first PN on study: 190 days
  On study PN = No, patients n (%): 9 (39%)
  On study PN = Yes, patients n (%): 2 (9%)
Total
  Median time to onset of first PN on study: 190 days
  On study PN = No, patients n (%): 19 (83%)
  On study PN = Yes, patients n (%): 4 (17%)
q1w patients
  Drug-related SAE dehydration, patients: 1
  Drug-related SAE diarrhea, patients: 1
  Drug-related SAE nausea, patients: 1
  Drug-related SAE posterior reversible encephalopathy syndrome, patients: 1
[1]
  alopecia, related AE: 21.7%
  anemia, related AE: 34.8%
  decreased appetite, related AE: 21.7%
  diarrhea, related AE: 21.7%
  fatigue, related AE: 30.4%
  hypomagnesaemia, related AE: 21.7%
  nausea, related AE: 47.8%
  neutropenia, related AE: 26.1%
  vomiting, related AE: 39.1%
q1w patients, total
  Grade ≥3 related diarrhea: 8.7%
  Grade ≥3 related hyponatraemia: 8.7%
  Grade ≥3 related neutropenia: 17.4%
q1w schedule
  RP2D: 1.4 mg/kg
q1w, at 1.4 mg/kg
  Grade ≥3 related diarrhea, patients: 0
  Grade ≥3 related hyponatraemia, patients: 0
  Grade ≥3 related neutropenia, patients: 1
q3w
  MTD dose: 2.4 mg/kg
q3w 0.3 mg/kg (n = 3)
  Alopecia (related AE), patients: 0
  Any adverse events (related), patients: 3
  Arthralgia (related AE), patients: 0
  Asthenia (related AE), patients: 0
  Decreased appetite (related AE), patients: 1
  Diarrhea (related AE), patients: 0
  Dysgeusia (related AE), patients: 0
  Fatigue (related AE), patients: 0
  Hypokalemia (related AE), patients: 0
  Hypomagnesaemia (related AE), patients: 1
  Hypophosphatemia (related AE), patients: 0
  Nausea (related AE), patients: 1
  Neutropenia (related AE), patients: 0
  Peripheral neuropathy (related AE), patients: 1
